US20170008928A1, “NOVEL PEPTIDES AND PEPTIDE DERIVATIVES AND USES THEREOF” (Novo Nordisk A/S, priority 2015, published 2017)
Starred links: 1 amine or outer side, 2 acyl side, 3 side chain; linkers in the order of their positions; H or OH if unused. Non-standard residues stand in square brackets, D forms with d. No end group written: not given here. *: point of attachment. sY = N[C@@H](Cc1ccc(OS(=O)(=O)O)cc1)C(=O)O; C18 diacid = O=C(O)CCCCCCCCCCCCCCCCC(=O)*; γGlu = O=C(O)[C@H](CCC(=O)[*:2])N[*:1]; NMeF = CN[C@@H](Cc1ccccc1)C(=O)O; dNMeD = CN[C@H](CC(=O)O)C(=O)O; Nle = CCCC[C@H](N)C(=O)O; AEEA = NCCOCCOCC(=O)O

T1: human cholecystokinin-1 receptor (human, UniProt P32238 1-428)
T1 sequence (looked up): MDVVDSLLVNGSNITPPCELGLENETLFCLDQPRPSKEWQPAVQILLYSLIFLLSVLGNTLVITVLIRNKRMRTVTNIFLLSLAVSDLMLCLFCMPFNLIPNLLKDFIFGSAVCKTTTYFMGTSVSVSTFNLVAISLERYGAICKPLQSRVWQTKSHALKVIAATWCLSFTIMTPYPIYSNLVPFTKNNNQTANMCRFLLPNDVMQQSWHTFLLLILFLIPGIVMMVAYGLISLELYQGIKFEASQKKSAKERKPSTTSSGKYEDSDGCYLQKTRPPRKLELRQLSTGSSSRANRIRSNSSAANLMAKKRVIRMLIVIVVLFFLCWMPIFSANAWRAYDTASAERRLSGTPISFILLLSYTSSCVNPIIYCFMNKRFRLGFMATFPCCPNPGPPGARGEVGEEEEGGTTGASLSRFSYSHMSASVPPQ

T2: human cholecystokinin-2 receptor (human, UniProt P32239 1-447)
T2 sequence (looked up): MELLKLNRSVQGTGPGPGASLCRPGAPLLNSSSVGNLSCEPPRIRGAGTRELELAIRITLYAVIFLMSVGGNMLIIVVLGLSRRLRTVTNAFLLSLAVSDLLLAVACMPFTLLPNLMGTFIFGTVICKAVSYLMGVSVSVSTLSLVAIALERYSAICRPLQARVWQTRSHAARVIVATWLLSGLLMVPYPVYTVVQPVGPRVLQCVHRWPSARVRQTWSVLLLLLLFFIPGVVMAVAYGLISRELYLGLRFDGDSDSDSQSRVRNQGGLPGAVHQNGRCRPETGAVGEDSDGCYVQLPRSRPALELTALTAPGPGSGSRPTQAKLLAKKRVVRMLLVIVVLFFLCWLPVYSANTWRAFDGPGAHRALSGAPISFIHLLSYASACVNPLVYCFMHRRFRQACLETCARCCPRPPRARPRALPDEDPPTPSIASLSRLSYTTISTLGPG

T3: human cholecystokinin-1 receptor (human), P32238
T3 chain: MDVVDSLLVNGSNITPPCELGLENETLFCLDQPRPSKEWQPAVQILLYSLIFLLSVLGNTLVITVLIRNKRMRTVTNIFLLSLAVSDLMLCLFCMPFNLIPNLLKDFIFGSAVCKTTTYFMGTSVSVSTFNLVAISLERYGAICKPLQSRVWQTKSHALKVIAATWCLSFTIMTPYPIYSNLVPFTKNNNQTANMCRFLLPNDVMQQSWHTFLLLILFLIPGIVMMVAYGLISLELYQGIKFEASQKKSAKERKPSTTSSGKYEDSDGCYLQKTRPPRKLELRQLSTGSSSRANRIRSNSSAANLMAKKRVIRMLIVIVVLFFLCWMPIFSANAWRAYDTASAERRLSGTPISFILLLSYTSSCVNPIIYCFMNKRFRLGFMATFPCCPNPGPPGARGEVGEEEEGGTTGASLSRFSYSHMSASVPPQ

T4: human cholecystokinin-2 receptor (human), P32239
T4 chain: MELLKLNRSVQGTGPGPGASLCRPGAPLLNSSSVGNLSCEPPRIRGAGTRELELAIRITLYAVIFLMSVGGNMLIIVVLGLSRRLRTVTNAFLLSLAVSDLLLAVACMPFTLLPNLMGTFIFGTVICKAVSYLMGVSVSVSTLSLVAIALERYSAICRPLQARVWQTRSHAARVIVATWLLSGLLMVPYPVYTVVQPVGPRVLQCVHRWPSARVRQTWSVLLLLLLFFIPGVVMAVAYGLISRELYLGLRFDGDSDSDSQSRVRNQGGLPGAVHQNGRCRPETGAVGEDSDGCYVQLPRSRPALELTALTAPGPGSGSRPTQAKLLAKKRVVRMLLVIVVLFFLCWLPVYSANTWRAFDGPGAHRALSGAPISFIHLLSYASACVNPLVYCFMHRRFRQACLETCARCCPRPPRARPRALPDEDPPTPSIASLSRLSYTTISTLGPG


Legend:
[1] = target: T1, human cholecystokinin-1 receptor; assay: cell-based or functional assay
[2] = target: T2, human cholecystokinin-2 receptor; assay: cell-based or functional assay
[3] = target: T1, human cholecystokinin-1 receptor; assay: SPA competition vs [125I]-CCK-8s, membranes
Experimental: (§1) CCK receptor binding assays were performed in 96-well Optiplates (Cat #6005290, PerkinElmer, Waltham, Mass., USA) in a total volume of 200 μl per well.
(§2) The plates were sealed and incubated in the dark at +22° C. for 2 hours on a IKA MTS plate shaker (IKA-Werke D-79219 Staufen) set at 300 rpm and thereafter centrifuged at 1500 rpm for 10 minutes in a Heraeus Multifuge 3s centrifuge. SPA bead light emission was measured in a TopCount NXT (PerkinElmer) for 2 min/well after a delay of 60 min.

[4] = target: T2, human cholecystokinin-2 receptor; assay: SPA competition vs [125I]-CCK-8s, membranes
Experimental: as §1, §2

[5] = target: T3, human cholecystokinin-1 receptor …; assay: cell-based or functional assay
[6] = target: T3, human cholecystokinin-1 receptor …; assay: SPA competition vs [125I]-CCK-8s, membranes
[7] = target: T4, human cholecystokinin-2 receptor …; assay: cell-based or functional assay

| Binder | EC50 (CCK-1R) [1] [nM] | EC50 (CCK-2R) [2] [nM] | IC50 [3] [nM] | IC50 [4] [nM] | EC50 (CCK-1R) [5] [nM] | IC50 [6] [nM] | EC50 (CCK-2R) [7] [nM] |
| --- | --- | --- | --- | --- | --- | --- | --- |
| {C18 diacid-γGlu-AEEA-AEEA}-[sY][Nle]GW[Nle][dNMeD][NMeF]-NH2 (SMILES CCCC[C@H](NC(=O)[C@H](Cc1ccc(OS(=O)(=O)O)cc1)NC(=O)COCCOCCNC(=O)COCCOCCNC(=O)CC[C@H](NC(=O)CCCCCCCCCCCCCCCCC(=O)O)C(=O)O)C(=O)NCC(=O)N[C@@H](Cc1c[nH]c2ccccc12)C(=O)N[C@@H](CCCC)C(=O)N(C)[C@H](CC(=O)O)C(=O)N(C)[C@@H](Cc1ccccc1)C(N)=O, X = Nle or Nal) | 0.37 | 440 | 0.039 | 6500 | – | – | – |
| D[sY]LGWP[DMeAsp][NMeF]-NH2 [Asp-sTyr-Leu-Gly-Trp-Pro-DMeAsp-MePhe-amide] | – | > 1000 | – | – | 0.34 | 0.11 | – |
| D[sY]LGWV[DMeAsp][NMeF]-NH2 [Asp-sTyr-Leu-Gly-Trp-Val-DMeAsp-MePhe-amide] | – | > 1000 | – | – | 0.34 | 0.62 | – |
| {C18 diacid-γGlu-AEEA-AEEA}-D[sY]AGW[Nle][dNMeD][NMeF]-NH2 (SMILES CCCC[C@H](NC(=O)[C@H](Cc1c[nH]c2ccccc12)NC(=O)CNC(=O)[C@H](C)NC(=O)[C@H](Cc1ccc(OS(=O)(=O)O)cc1)NC(=O)[C@H](CC(=O)O)NC(=O)COCCOCCNC(=O)COCCOCCNC(=O)CC[C@H](NC(=O)CCCCCCCCCCCCCCCCC(=O)O)C(=O)O)C(=O)N(C)[C@H](CC(=O)O)C(=O)N(C)[C@@H](Cc1ccccc1)C(N)=O, X = Nle or Nal) | 0.22 | 97 | 0.068 | 280 | – | – | – |
| {C18 diacid-γGlu-AEEA-AEEA}-D[sY]SGW[Nle][dNMeD][NMeF]-NH2 (SMILES CCCC[C@H](NC(=O)[C@H](Cc1c[nH]c2ccccc12)NC(=O)CNC(=O)[C@H](CO)NC(=O)[C@H](Cc1ccc(OS(=O)(=O)O)cc1)NC(=O)[C@H](CC(=O)O)NC(=O)COCCOCCNC(=O)COCCOCCNC(=O)CC[C@H](NC(=O)CCCCCCCCCCCCCCCCC(=O)O)C(=O)O)C(=O)N(C)[C@H](CC(=O)O)C(=O)N(C)[C@@H](Cc1ccccc1)C(N)=O, X = Nle or Nal) | – | 940 | 0.058 | 4700 | – | – | – |
| D[sY]SGW[Nle][dNMeD][NMeF]-NH2 (N-terminus assumed; SMILES CCCC[C@H](NC(=O)[C@H](Cc1c[nH]c2ccccc12)NC(=O)CNC(=O)[C@H](CO)NC(=O)[C@H](Cc1ccc(OS(=O)(=O)O)cc1)NC(=O)[C@@H](N)CC(=O)O)C(=O)N(C)[C@H](CC(=O)O)C(=O)N(C)[C@@H](Cc1ccccc1)C(N)=O, X = Nle or Nal) [Asp-sTyr-Ser-Gly-Trp-Nle-DMeAsp-MePhe-amide] | 0.19 | > 1000 | 0.035 | 3600 | – | – | – |
| {C18 diacid-γGlu-AEEA-AEEA}-D[sY]FGW[Nle][dNMeD][NMeF]-NH2 (SMILES CCCC[C@H](NC(=O)[C@H](Cc1c[nH]c2ccccc12)NC(=O)CNC(=O)[C@H](Cc1ccccc1)NC(=O)[C@H](Cc1ccc(OS(=O)(=O)O)cc1)NC(=O)[C@H](CC(=O)O)NC(=O)COCCOCCNC(=O)COCCOCCNC(=O)CC[C@H](NC(=O)CCCCCCCCCCCCCCCCC(=O)O)C(=O)O)C(=O)N(C)[C@H](CC(=O)O)C(=O)N(C)[C@@H](Cc1ccccc1)C(N)=O, X = Nle or Nal) | 0.41 | 390 | 0.065 | 5600 | – | – | – |
| {C18 diacid-γGlu-AEEA-AEEA}-D[sY][Nle]GW[Nle][dNMeD]W-NH2 (SMILES CCCC[C@H](NC(=O)[C@H](Cc1ccc(OS(=O)(=O)O)cc1)NC(=O)[C@H](CC(=O)O)NC(=O)COCCOCCNC(=O)COCCOCCNC(=O)CC[C@H](NC(=O)CCCCCCCCCCCCCCCCC(=O)O)C(=O)O)C(=O)NCC(=O)N[C@@H](Cc1c[nH]c2ccccc12)C(=O)N[C@@H](CCCC)C(=O)N(C)[C@H](CC(=O)O)C(=O)N[C@@H](Cc1c[nH]c2ccccc12)C(N)=O, X = Nle or Nal) | 0.24 | > 1000 | 0.91 | 3000 | – | – | – |
| D[sY]LGWQ[DMeAsp][NMeF]-NH2 [Asp-sTyr-Leu-Gly-Trp-Gln-DMeAsp-MePhe-amide] | – | – | – | – | 0.15 | 0.075 | > 1000 |
| D[sY]LGWA[DMeAsp][NMeF]-NH2 [Asp-sTyr-Leu-Gly-Trp-Ala-DMeAsp-MePhe-amide] | – | – | – | – | 0.22 | 0.53 | > 1000 |
| D[sY]LGWL[DMeAsp][NMeF]-NH2 [Asp-sTyr-Leu-Gly-Trp-Leu-DMeAsp-MePhe-amide] | – | > 1000 | – | – | 0.25 | 0.042 | – |
| {C18 diacid-γGlu-AEEA-AEEA}-D[sY]LGWA[DMeAsp][NMeF]-NH2 | – | – | – | – | 0.17 | 0.65 | 880 |
| {C18 diacid-γGlu-AEEA-AEEA}-D[sY]LGWQ[DMeAsp][NMeF]-NH2 | – | – | – | – | 0.17 | 0.084 | > 1000 |
